Laboratory results: paper PMC9482650, “Quantitative fragmentomics allow affinity mapping of interactomes” (Nature Communications, 2022)

Legend:
Assay in all cases: holdup assay
Parameters in all cases: key: below the threshold = too weak to quantify, mostly under pKd 3.1 to 4
Conditions in all cases: plain residues with an end cap or a label only (N-terminal biotin on a linker: ado-ado)
TJP2_1, Q9UDY2 = molecular target: TJP2_1, Q9UDY2
MPP7, Q5T2T1 = molecular target: T1, MPP7, Q5T2T1
T1 sequence (Q5T2T1 134-230, limits assumed, looked up): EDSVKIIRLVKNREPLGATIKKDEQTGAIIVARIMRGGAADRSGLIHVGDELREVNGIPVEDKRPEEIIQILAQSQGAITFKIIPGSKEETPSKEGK

SYNJ2BP, P57105 = molecular target: T2, SYNJ2BP, P57105
T2 sequence (P57105 8-110, limits assumed, looked up): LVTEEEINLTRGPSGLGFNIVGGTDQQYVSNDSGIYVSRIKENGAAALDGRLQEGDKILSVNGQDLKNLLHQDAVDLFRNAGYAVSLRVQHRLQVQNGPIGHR

SNX27, Q96L92 = molecular target: SNX27, Q96L92
TJP3_3, O95049 = molecular target: T3, TJP3_3, O95049
T3 sequence (O95049 375-456, limits assumed, looked up): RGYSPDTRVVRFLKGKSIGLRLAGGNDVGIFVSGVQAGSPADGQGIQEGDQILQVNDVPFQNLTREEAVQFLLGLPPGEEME

SCRIB_1, Q14160 = molecular target: SCRIB_1, Q14160
LAP2, Q96RT1 = molecular target: LAP2, Q96RT1
MAGI2_2, Q86UL8 = molecular target: MAGI2_2, Q86UL8
GRIP2_3, Q9C0E4 = molecular target: GRIP2_3, Q9C0E4
LIN7C, Q9NUP9 = molecular target: T4, LIN7C, Q9NUP9
T4 sequence (Q9NUP9 88-185, limits assumed, looked up): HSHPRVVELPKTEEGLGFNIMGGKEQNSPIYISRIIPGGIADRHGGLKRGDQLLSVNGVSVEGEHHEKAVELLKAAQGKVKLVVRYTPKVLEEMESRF

PDZRN4_1, Q6ZMN7 = molecular target: PDZRN4_1, Q6ZMN7
GRIP1_3, Q9Y3R0 = molecular target: T5, GRIP1_3, Q9Y3R0
T5 sequence (Q9Y3R0 247-346, limits assumed, looked up): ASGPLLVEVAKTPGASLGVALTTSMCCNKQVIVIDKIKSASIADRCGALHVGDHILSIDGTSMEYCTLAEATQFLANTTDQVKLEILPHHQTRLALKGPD

HTRA2, O43464 = molecular target: HTRA2, O43464
CARD11, Q9BXL7 = molecular target: T6, CARD11, Q9BXL7
T6 sequence (Q9BXL7 662-765, limits assumed, looked up): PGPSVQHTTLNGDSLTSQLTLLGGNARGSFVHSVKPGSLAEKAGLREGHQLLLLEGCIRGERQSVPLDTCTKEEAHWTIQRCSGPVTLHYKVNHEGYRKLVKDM

DLG1_3, Q12959 = molecular target: DLG1_3, Q12959
GORASP2, Q9H8Y8 = molecular target: GORASP2, Q9H8Y8
GRIP1_2, Q9Y3R0 = molecular target: T7, GRIP1_2, Q9Y3R0
T7 sequence (Q9Y3R0 145-248, limits assumed, looked up): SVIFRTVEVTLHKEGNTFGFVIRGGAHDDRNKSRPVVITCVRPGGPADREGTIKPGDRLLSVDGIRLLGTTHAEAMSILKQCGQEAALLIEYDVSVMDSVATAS

MAGI2_4, Q86UL8 = molecular target: MAGI2_4, Q86UL8
AHNAK1, Q09666 = molecular target: AHNAK1, Q09666
GRIP2_7, Q9C0E4 = molecular target: GRIP2_7, Q9C0E4
FRMPD3, Q5JV73 = molecular target: FRMPD3, Q5JV73
APBA1_2, Q02410 = molecular target: T8, APBA1_2, Q02410
T8 sequence (Q02410 742-832, limits assumed, looked up): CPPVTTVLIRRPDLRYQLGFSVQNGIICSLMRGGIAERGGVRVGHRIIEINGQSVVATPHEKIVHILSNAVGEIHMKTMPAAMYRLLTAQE

GRIP1_5, Q9Y3R0 = molecular target: T9, GRIP1_5, Q9Y3R0
T9 sequence (Q9Y3R0 568-668, limits assumed, looked up): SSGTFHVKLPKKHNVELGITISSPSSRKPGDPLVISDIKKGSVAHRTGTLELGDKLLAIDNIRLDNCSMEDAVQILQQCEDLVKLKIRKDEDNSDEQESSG

SCRIB_2, Q14160 = molecular target: SCRIB_2, Q14160
GRID2IP_1, A4D2P6 = molecular target: GRID2IP_1, A4D2P6
DLG4_3, P78352 = molecular target: DLG4_3, P78352
DFNB31_3, Q9P202 = molecular target: T10, DFNB31_3, Q9P202
T10 sequence (Q9P202 811-907, limits assumed, looked up): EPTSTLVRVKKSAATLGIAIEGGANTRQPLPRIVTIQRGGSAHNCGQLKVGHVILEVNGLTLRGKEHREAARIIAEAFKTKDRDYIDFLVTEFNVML

LAP2, Q96RT1, sequence (Q96RT1 other isoform, or with tags, fused parts or gaps): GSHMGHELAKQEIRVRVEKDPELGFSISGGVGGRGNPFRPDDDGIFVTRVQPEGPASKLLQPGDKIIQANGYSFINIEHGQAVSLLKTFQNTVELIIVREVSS
TJP2_1, Q9UDY2, sequence (Q9UDY2 24-128): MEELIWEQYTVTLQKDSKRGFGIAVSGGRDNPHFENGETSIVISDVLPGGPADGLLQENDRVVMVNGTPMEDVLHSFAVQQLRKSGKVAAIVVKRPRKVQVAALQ
HTRA2, O43464, sequence (O43464 355-458): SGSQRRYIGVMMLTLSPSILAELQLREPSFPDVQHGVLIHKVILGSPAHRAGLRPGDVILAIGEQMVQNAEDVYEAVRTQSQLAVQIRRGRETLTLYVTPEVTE
GRIP2_3, Q9C0E4, sequence (Q9C0E4 238-339): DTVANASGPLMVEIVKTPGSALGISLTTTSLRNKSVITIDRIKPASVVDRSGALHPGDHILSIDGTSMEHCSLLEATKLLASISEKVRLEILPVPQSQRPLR
DLG4_3, P78352, sequence (P78352 306-403): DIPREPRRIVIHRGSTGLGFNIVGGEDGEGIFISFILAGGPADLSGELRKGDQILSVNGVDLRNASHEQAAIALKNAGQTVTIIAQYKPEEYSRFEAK
SCRIB_1, Q14160, sequence (Q14160 718-814): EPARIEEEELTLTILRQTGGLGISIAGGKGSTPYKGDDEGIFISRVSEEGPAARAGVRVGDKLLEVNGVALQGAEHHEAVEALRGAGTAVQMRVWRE
AHNAK1, Q09666, sequence (Q09666 4-100): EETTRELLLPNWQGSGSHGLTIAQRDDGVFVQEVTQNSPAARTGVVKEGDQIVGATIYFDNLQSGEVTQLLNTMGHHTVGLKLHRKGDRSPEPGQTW
MAGI2_4, Q86UL8, sequence (Q86UL8 772-865): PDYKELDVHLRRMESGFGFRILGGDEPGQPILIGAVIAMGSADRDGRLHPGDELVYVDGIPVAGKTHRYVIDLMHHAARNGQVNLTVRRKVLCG
DLG1_3, Q12959, sequence (Q12959 457-571): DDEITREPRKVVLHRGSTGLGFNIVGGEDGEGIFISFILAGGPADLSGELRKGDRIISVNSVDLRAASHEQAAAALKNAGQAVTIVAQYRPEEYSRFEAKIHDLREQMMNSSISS
PDZRN4_1, Q6ZMN7, sequence (Q6ZMN7 213-318): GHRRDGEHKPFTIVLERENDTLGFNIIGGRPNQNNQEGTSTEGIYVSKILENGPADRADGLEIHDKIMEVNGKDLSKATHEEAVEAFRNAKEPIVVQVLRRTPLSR
GRIP2_7, Q9C0E4, sequence (Q9C0E4 934-1023): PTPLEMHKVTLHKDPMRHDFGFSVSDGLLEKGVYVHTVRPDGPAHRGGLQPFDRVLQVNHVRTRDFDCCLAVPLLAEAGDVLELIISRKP
GRID2IP_1, A4D2P6, sequence (A4D2P6 1-87): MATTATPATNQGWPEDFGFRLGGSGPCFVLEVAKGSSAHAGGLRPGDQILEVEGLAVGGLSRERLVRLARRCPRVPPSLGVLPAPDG
FRMPD3, Q5JV73, sequence (Q5JV73 12-100): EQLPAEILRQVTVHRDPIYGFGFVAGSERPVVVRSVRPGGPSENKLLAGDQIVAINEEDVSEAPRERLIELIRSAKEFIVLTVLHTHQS
MAGI2_2, Q86UL8, sequence (Q86UL8 410-522): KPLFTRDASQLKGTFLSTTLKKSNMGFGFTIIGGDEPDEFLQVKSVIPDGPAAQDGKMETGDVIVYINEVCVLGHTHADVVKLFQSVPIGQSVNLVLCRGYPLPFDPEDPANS
SCRIB_2, Q14160, sequence (Q14160 857-960): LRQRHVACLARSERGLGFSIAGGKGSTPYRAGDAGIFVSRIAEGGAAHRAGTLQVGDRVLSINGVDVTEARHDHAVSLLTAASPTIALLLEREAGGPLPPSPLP

Question: Which results are given for KKMPSIESDV [GRIN2A, Q12879]?
Answer: pKd (TJP2_1, Q9UDY2): below the threshold; pKd (MPP7, Q5T2T1): below the threshold; pKd (SYNJ2BP, P57105): 4.85; pKd (SNX27, Q96L92): 3.64; pKd (TJP3_3, O95049): below the threshold; pKd (SCRIB_1, Q14160): 4.34; pKd (LAP2, Q96RT1): 4.6; pKd (MAGI2_2, Q86UL8): 4.05; pKd (GRIP2_3, Q9C0E4): below the threshold; pKd (LIN7C, Q9NUP9): below the threshold; pKd (PDZRN4_1, Q6ZMN7): below the threshold; pKd (GRIP1_3, Q9Y3R0): below the threshold; pKd (HTRA2, O43464): below the threshold; pKd (CARD11, Q9BXL7): below the threshold; pKd (DLG1_3, Q12959): below the threshold; pKd (GORASP2, Q9H8Y8): below the threshold; pKd (GRIP1_2, Q9Y3R0): below the threshold; pKd (MAGI2_4, Q86UL8): below the threshold; pKd (AHNAK1, Q09666): below the threshold; pKd (GRIP2_7, Q9C0E4): below the threshold; pKd (FRMPD3, Q5JV73): below the threshold; pKd (APBA1_2, Q02410): below the threshold; pKd (GRIP1_5, Q9Y3R0): below the threshold; pKd (SCRIB_2, Q14160): 4.43; pKd (GRID2IP_1, A4D2P6): below the threshold; pKd (DLG4_3, P78352): below the threshold; pKd (DFNB31_3, Q9P202): below the threshold

Question: Which results are given for TACCHSETVV [TGFA, P01135]?
Answer: pKd (TJP2_1, Q9UDY2): below the threshold; pKd (MPP7, Q5T2T1): below the threshold; pKd (SYNJ2BP, P57105): 4.55; pKd (SNX27, Q96L92): 5.6; pKd (TJP3_3, O95049): below the threshold; pKd (SCRIB_1, Q14160): 4.3; pKd (LAP2, Q96RT1): 4.05; pKd (MAGI2_2, Q86UL8): 4.74; pKd (GRIP2_3, Q9C0E4): below the threshold; pKd (LIN7C, Q9NUP9): below the threshold; pKd (PDZRN4_1, Q6ZMN7): 3.67; pKd (GRIP1_3, Q9Y3R0): below the threshold; pKd (HTRA2, O43464): below the threshold; pKd (CARD11, Q9BXL7): below the threshold; pKd (DLG1_3, Q12959): 3.97; pKd (GORASP2, Q9H8Y8): 4.05; pKd (GRIP1_2, Q9Y3R0): below the threshold; pKd (MAGI2_4, Q86UL8): 4.4; pKd (AHNAK1, Q09666): below the threshold; pKd (GRIP2_7, Q9C0E4): below the threshold; pKd (FRMPD3, Q5JV73): below the threshold; pKd (APBA1_2, Q02410): 3.87; pKd (GRIP1_5, Q9Y3R0): below the threshold; pKd (SCRIB_2, Q14160): 4.1; pKd (GRID2IP_1, A4D2P6): below the threshold; pKd (DLG4_3, P78352): below the threshold; pKd (DFNB31_3, Q9P202): below the threshold

Question: What does the source list for TSSMRGMDAV [RSRC2, Q7L4I2]?
Answer: pKd (TJP2_1, Q9UDY2): below the threshold; pKd (MPP7, Q5T2T1): below the threshold; pKd (SYNJ2BP, P57105): below the threshold; pKd (SNX27, Q96L92): below the threshold; pKd (TJP3_3, O95049): below the threshold; pKd (SCRIB_1, Q14160): below the threshold; pKd (LAP2, Q96RT1): below the threshold; pKd (MAGI2_2, Q86UL8): 4.02; pKd (GRIP2_3, Q9C0E4): below the threshold; pKd (LIN7C, Q9NUP9): 3.97; pKd (PDZRN4_1, Q6ZMN7): below the threshold; pKd (GRIP1_3, Q9Y3R0): below the threshold; pKd (HTRA2, O43464): below the threshold; pKd (CARD11, Q9BXL7): below the threshold; pKd (DLG1_3, Q12959): below the threshold; pKd (GORASP2, Q9H8Y8): below the threshold; pKd (GRIP1_2, Q9Y3R0): below the threshold; pKd (MAGI2_4, Q86UL8): below the threshold; pKd (AHNAK1, Q09666): below the threshold; pKd (GRIP2_7, Q9C0E4): below the threshold; pKd (FRMPD3, Q5JV73): below the threshold; pKd (APBA1_2, Q02410): 3.86; pKd (GRIP1_5, Q9Y3R0): below the threshold; pKd (SCRIB_2, Q14160): below the threshold; pKd (GRID2IP_1, A4D2P6): below the threshold; pKd (DLG4_3, P78352): below the threshold; pKd (DFNB31_3, Q9P202): below the threshold

Question: How did the pKd (TJP2_1, Q9UDY2) turn out when HSGYRLNDYV [CLDN14, O95500] was run?
Answer: 4.72

Question: What about the pKd (MPP7, Q5T2T1) of the same binder?
Answer: below the threshold

Question: What about the pKd (SYNJ2BP, P57105) of the same binder?
Answer: 3.63

Question: And the pKd (SNX27, Q96L92)?
Answer: 3.72

Question: What about the pKd (TJP3_3, O95049) of the same binder?
Answer: 4.28

Question: What about the pKd (SCRIB_1, Q14160) of the same binder?
Answer: below the threshold

Question: And the pKd (LAP2, Q96RT1)?
Answer: below the threshold

Question: And the pKd (MAGI2_2, Q86UL8)?
Answer: below the threshold

Question: And the pKd (GRIP2_3, Q9C0E4)?
Answer: below the threshold

Question: And the pKd (LIN7C, Q9NUP9)?
Answer: below the threshold

Question: And the pKd (PDZRN4_1, Q6ZMN7)?
Answer: below the threshold

Question: What about the pKd (GRIP1_3, Q9Y3R0) of the same binder?
Answer: below the threshold

Question: And the pKd (HTRA2, O43464)?
Answer: 3.74

Question: And the pKd (CARD11, Q9BXL7)?
Answer: below the threshold

Question: And the pKd (DLG1_3, Q12959)?
Answer: below the threshold

Question: What about the pKd (GORASP2, Q9H8Y8) of the same binder?
Answer: 3.85

Question: And the pKd (GRIP1_2, Q9Y3R0)?
Answer: below the threshold

Question: And the pKd (MAGI2_4, Q86UL8)?
Answer: 3.94

Question: And the pKd (AHNAK1, Q09666)?
Answer: below the threshold

Question: And the pKd (GRIP2_7, Q9C0E4)?
Answer: below the threshold

Question: What about the pKd (FRMPD3, Q5JV73) of the same binder?
Answer: below the threshold

Question: And the pKd (APBA1_2, Q02410)?
Answer: 3.84

Question: What about the pKd (GRIP1_5, Q9Y3R0) of the same binder?
Answer: below the threshold

Question: What about the pKd (SCRIB_2, Q14160) of the same binder?
Answer: below the threshold

Question: What about the pKd (GRID2IP_1, A4D2P6) of the same binder?
Answer: below the threshold

Question: And the pKd (DLG4_3, P78352)?
Answer: below the threshold

Question: And the pKd (DFNB31_3, Q9P202)?
Answer: below the threshold
